In patent US20060286142A1:

Molecular target: biotinylated alkaline phosphatase
Assay: SPR (Spreeta) refractive index response to 2 ug/ml b-AP on gold channels saturated with GBP-SA then GBP, after exposure to foulants (fibrinogen, human serum albumin, plasma, platelets)

- relative response to b-AP (% of GBP-SA control channel): 80 to 100%
Substance: His6 tagged fusion protein streptavidin-GBP (from UniProt P22629 13-133)
